Test results from PMC1559926 (2006).

Target: T1, Caveolin-1 1-178 (UniProt Q03135)
T1 chain: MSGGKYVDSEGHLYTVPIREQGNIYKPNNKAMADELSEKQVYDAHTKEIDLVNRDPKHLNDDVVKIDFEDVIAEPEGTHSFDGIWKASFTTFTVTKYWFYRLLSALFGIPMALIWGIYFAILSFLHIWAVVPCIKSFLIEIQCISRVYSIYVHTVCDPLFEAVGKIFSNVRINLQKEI
Test: given as Ka

B1: PrP (protein)
chain: not shown
In the case of B1, the Kd is reported as ~1.18 nM.
